For assay [1], the target named is T1, rHuman IGF-1 sR, (IGF-1 sR), CF (Cat# 391-GR) (human, UniProt P08069 31-932).
T1 construct: Bought from R&D Systems; also called insulin-like growth factor-1 soluble receptor
The assay can be described thus: Multispot ECL; Fab 930 nM. On the procedure: (§1) An 150 μl aliquot of 1% Bovine Serum Albumin (BSA) in Tris-buffered Saline Tween (TBST) was added to each well and allowed to incubate for 30 min at 20° C. followed by washing and tap drying to completely remove any residual solution. Subsequently, a 12.5 μl aliquot of 1% BSA TBST was added to each well followed by the addition of a 12.5 μl aliquot of a purified Fab. The plate was sealed and incubated for 1 hour at 20° C. with shaking.
(§2) Detection antibodies were prepared by individually conjugating both goat anti-human Kappa light chain polyclonal antibody (K3502-1MG, Sigma-Aldrich) and goat anti-human Lambda light chain polyclonal antibody (L1645-1 mL, Sigma-Aldrich) with Ruthenium (II) tris-bipyridine-(4-methylsulfone)-N-hydroxysuccinimide (SULFO-TAG NHS-ester, Meso Scale Discovery) according to the manufacturer's instructions. TAG-detection antibody at 25 μl was added to each well and allowed to incubate for 1 hour at 20° C. with shaking. Finally, 15 μl of Read Buffer P with Surfactant (Cat # R92PC-1, Meso Scale Discovery) was added to each well. The electrochemiluminescence was measured using a Sector Imager 2400 (Meso Scale Discovery). Data was analyzed by comparing the ECL signals for an antigen to the blank of each well. A signal to blank ratio of 4 or more was considered a “Hit” Fab.
(§3) To confirm a “Hit” from the initial Multispot ECL screening, a Fab concentration dependent titration was carried out to determine the Fab-antigen binding affinity.

Assay [2] deals with T2, Recombinant Human DLL4 (Cat# 1506-D4/CF) (human, UniProt Q9NR61 27-529).
T2 construct: Bought from R&D Systems; also called rHuman DLL4; hDLL4
The assay can be described thus: Multispot ECL; Fab 930 nM. On the procedure:
as §1, §2, §3

The target in assay [3] is T3, rHuman Notch-1/Fc Chimera, CF (Cat# 3647-TK) (human, UniProt P46531 19-526).
T3 construct: Bought from R&D Systems
Briefly: Multispot ECL; Fab 930 nM. As for the experimental part:
as §1, §2, §3

Assay [4] addresses T4, rHuman ErbB2/Fc Chimera, CF (Cat# 1129-ER) (human, UniProt P04626 23-652).
T4 construct: Bought from R&D Systems; also called human epidermal growth factor 2 receptor (ErbB2)
Briefly: Multispot ECL; Fab 930 nM. On the procedure:
as §1, §2, §3

Assay [5] concerns the target T5, rHuman CD44/Fc Chimera, CF (Cat# 3660-CD) (human, UniProt P16070 21-220).
T5 construct: Bought from R&D Systems
The assay can be described thus: Multispot ECL; Fab 930 nM. On the procedure: as §1, §2, §3

Assay [6] concerns the target T6, rHuman Erythropoietin R/Fc Chimera, CF (Cat# 963-ER) (human, UniProt P19235 25-250).
T6 construct: Bought from R&D Systems; also called EPO R/Fc; Epo R/Fc chimera
T6 sequence (looked up): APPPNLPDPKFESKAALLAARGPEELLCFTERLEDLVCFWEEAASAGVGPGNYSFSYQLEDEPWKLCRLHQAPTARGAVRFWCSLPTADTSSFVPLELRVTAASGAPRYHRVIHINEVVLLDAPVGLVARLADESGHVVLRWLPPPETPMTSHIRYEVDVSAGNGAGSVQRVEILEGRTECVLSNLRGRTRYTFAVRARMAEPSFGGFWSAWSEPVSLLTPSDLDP
Briefly: Multispot ECL; Fab 930 nM. As for the experimental part: as §1, §2, §3

Assay [7] has as its target T1, rHuman IGF-1 sR, (IGF-1 sR), CF (Cat# …). The assay can be described thus: Multispot ECL; Fab 58.1 nM. As for the experimental part:
as §1, §2, §3

The target in assay [8] is T2, Recombinant Human DLL4 (Cat# 1506-D4/CF). The assay can be described thus: Multispot ECL; Fab 58.1 nM. On the procedure:
as §1, §2, §3

Assay [9] has as its target T3, rHuman Notch-1/Fc Chimera, CF (Cat# …). Briefly: Multispot ECL; Fab 58.1 nM. On the procedure:
as §1, §2, §3

The target of assay [10] is T4, rHuman ErbB2/Fc Chimera, CF (Cat# …). The assay can be described thus: Multispot ECL; Fab 58.1 nM. On the procedure:
as §1, §2, §3

The target in assay [11] is T5, rHuman CD44/Fc Chimera, CF (Cat# …). The assay can be described thus: Multispot ECL; Fab 58.1 nM. On the procedure: as §1, §2, §3
The target of assay [12] is T6, rHuman Erythropoietin R/Fc Chimera, CF …. Briefly: Multispot ECL; Fab 58.1 nM. As for the experimental part:
as §1, §2, §3

The target in assay [13] is T1, rHuman IGF-1 sR, (IGF-1 sR), CF (Cat# …). Briefly: Multispot ECL; Fab 232.5 nM. On the procedure:
as §1, §2, §3

Assay [14] deals with T2, Recombinant Human DLL4 (Cat# 1506-D4/CF). Briefly: Multispot ECL; Fab 232.5 nM. On the procedure: as §1, §2, §3
The target in assay [15] is T3, rHuman Notch-1/Fc Chimera, CF (Cat# …). The assay can be described thus: Multispot ECL; Fab 232.5 nM. On the procedure: as §1, §2, §3
For assay [16], the target named is T4, rHuman ErbB2/Fc Chimera, CF (Cat# …). The assay can be described thus: Multispot ECL; Fab 232.5 nM. As for the experimental part:
as §1, §2, §3

Assay [17] deals with T5, rHuman CD44/Fc Chimera, CF (Cat# …). The assay can be described thus: Multispot ECL; Fab 232.5 nM. As for the experimental part: as §1, §2, §3
The target of assay [18] is T6, rHuman Erythropoietin R/Fc Chimera, CF …. Briefly: Multispot ECL; Fab 232.5 nM. As for the experimental part:
as §1, §2, §3

Assay [19] deals with T1, rHuman IGF-1 sR, (IGF-1 sR), CF (Cat# …). Briefly: Multispot ECL; Fab 14.5 nM. On the procedure: as §1, §2, §3
Assay [20] concerns the target T2, Recombinant Human DLL4 (Cat# 1506-D4/CF). Briefly: Multispot ECL; Fab 14.5 nM. As for the experimental part:
as §1, §2, §3

Assay [21] has as its target T3, rHuman Notch-1/Fc Chimera, CF (Cat# …). Briefly: Multispot ECL; Fab 14.5 nM. On the procedure:
as §1, §2, §3

Assay [22] has as its target T4, rHuman ErbB2/Fc Chimera, CF (Cat# …). Briefly: Multispot ECL; Fab 14.5 nM. As for the experimental part: as §1, §2, §3
Assay [23] addresses T5, rHuman CD44/Fc Chimera, CF (Cat# …). The assay can be described thus: Multispot ECL; Fab 14.5 nM. On the procedure: as §1, §2, §3
The target of assay [24] is T6, rHuman Erythropoietin R/Fc Chimera, CF …. Briefly: Multispot ECL; Fab 14.5 nM. On the procedure: as §1, §2, §3

B1: Fab VH1-46_IGHD6-13*01_IGHJ4*01 & O1_IGKJ1*01 (Fab, V domains shown)
VH: QVQLVQSGAEVKKPGASVKVSCKASGYTFTSYYMHWVRQAPGQGLEWMGIINPSGGSTSYAQKFQGRVTMTRDTSTSTVYMELSSLRSEDTAVYYCAREGYSSSWYDYFDYWGQGTLVTVSS
VL: DIVMTQTPLSLPVTPGEPASISCRSSQSLLDSDDGNTYLDWYLQKPGQSPQLLIYTLSYRASGVPDRFSGSGSGTDFTLKISRVEAEDVGVYYCMQRIEFPSWTFGQGTKVEIKR
notes: Germline-derived Fab from E. coli: VH in Plasmid A (CH1, His6 and Flag tags), VL in Plasmid C (kappa CL)
With B1, the ECL signal amounted to 1920 in assay [1]; 8160 in assay [2]; 2210 in [3]; 2220 in assay [4]; 1920 in [5]; 3010 in [6]. Further, the ECL signal in assay [7] was 343; in [8], 1880; in assay [9], 388; in [10], 322; in assay [11], 375; in [12], 829. In addition, the ECL signal in assay [13] turned out to be 569; in [14], 3590; in assay [15], 778; in assay [16] it was 779; in assay [17] it was 607; in assay [18], 1470. Moreover, the ECL signal in [19] was determined as 234; in assay [20], 1150; in assay [21], 317; in [22] it was 274; in assay [23] it was 212; in assay [24], 660.

These data come from US20110318339A1 (FABRUS, published 2011).
